Test results from US20230203197.

Molecular target: alpha 1 antitrypsin (α1AT), P01009
Sequence (P01009 whole entry, looked up): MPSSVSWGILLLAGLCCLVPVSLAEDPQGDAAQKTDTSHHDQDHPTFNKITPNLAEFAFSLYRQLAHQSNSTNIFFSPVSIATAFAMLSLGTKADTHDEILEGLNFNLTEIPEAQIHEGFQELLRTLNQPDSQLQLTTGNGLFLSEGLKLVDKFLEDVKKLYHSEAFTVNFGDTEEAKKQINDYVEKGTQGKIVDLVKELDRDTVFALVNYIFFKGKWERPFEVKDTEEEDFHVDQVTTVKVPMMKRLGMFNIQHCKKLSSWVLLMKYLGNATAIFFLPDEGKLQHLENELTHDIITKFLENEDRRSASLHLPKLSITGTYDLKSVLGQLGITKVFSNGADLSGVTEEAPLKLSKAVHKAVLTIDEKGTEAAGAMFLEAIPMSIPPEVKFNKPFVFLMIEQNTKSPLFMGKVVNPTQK

B1: neutrophil proteinase 3 (PR3), purified native human PR3 (protein)
chain: IVGGHEAQPHSRPYMASLQMRGNPGSHFCGGTLIHPSFVLTAAHCLRDIPQRLVNVVLGAHNVRTQEPTQQHFSVAQVFLNNYDAENKLNDVLLIQLSSPANLSASVATVQLPQQDQPVPHGTQCLAMGWGRVGAHDPPAQVLQELNVTVVTFFCRPHNICTFVPRRKAGICFGDSGGPLICDGIIQGIDSFVIWGCATRLFPDFFTRVALYVDWIRSTLR
With B1 the “enzymatic activity of PR3 (fluorescent substrate Abz-VADnVADYQ-YNO2)” value was “the addition of alpha 1 anti-trypsin (1AT) which is a natural PR3 inhibitor did not induce any degradation of the PR3 substrate”.
